Consider eight molecules from patent US20260258115A1 (MAPP BIOPHARMACEUTICAL, published 2026).

The target of test [1] is T1, RSV postfusion F (postF), subtype A (respiratory syncytial virus subtype A, UniProt P03420 26-513).
T1 construct: also called Postfusion subtype A; F deltaFP
Description: BLI. (In general: Biolayer interferometry detects binding as a change in optical thickness at a sensor tip.)

Test [2] has as its target T2, RSV prefusion F (preF), subtype B (respiratory syncytial virus subtype B).
T2 construct: also called Prefusion subtype B
Briefly: BLI, IgG.

B1: ADI-24856 (antibody, V domains shown)
VH: QVQLVQSGAEVKKPGASVKVSCKASGYTFTSYGISWVRQAPGQGLEWMGWISAYNGNTNYAQKLQGRVTMTTDTSTSTAYMELRSLRSDDTAVYYCARAGIVVVPKYYYYMDVWGKGTTVTVSS
VL: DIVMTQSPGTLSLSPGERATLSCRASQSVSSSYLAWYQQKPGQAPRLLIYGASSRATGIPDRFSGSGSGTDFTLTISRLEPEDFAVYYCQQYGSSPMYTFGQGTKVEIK
notes: full-length IgG
A word on the Kd: it is the concentration at which binding is half-saturated. Read a low Kd as a tighter complex. Consider B1, for which the binding result in test [1] is on record as “no binding”. This molecule showed a Kd in test [2] of 4.91 nM.

B2: ADI-24855 (antibody, V domains shown)
VH: EVQLVESGGGLVKPGGSLRLSCAASGFTFSSYSMNWVRQAPGKGLEWVSSISSSSSYIYYADSVKGRFTISRDNAKNSLYLQMNSLRAEDTAVYYCARRYCTNGVCYDAFDIWGQGTMVTVSS
VL: QSVVTQPPSVSGAPGQRVTISCTGSSSNIGAGYDVHWYQQLPGTAPKLLIYGNSNRPSGVPDRFSGSKSGTSASLAITGLQAEDEADYYCQSYDSSLSYVFGTGTKVTVL
notes: full-length IgG
Regarding B2, the binding result in test [1] is recorded as “no binding”. For the same molecule, binding in test [2] was characterised by a dissociation constant (Kd) of 28 nM.

B3: ADI-24861 (antibody, V domains shown)
VH: QVQLVQSGGGLVKPGGSLRLSCAASGFTFSSYSMNWVRQAPGKGLEWVSSISGGSSYIYYADSVKGRFTISRDNAKNSLYLQMNSLRAEDTAVYYCAREAYYYDSSGLKWFDPWGQGTLVTVSS
VL: QSVLTQPPSVSGAPGQRVTISCTGSSSNIGAGYDVHWYQQLPGTAPKLLIYGNSNRPSGVPDRFSGSKSGTSASLAITGLQAEDEADYYCQSYDSSLGWVFGGGTKLTVL
notes: full-length IgG
With B3, the binding result in test [1] was “no binding”. The molecule further returned a Kd in test [2] of 0.461 nM.

B4: ADI-14366 (antibody, V domains shown)
VH: QVQLVQSGTEVKKPGASVKVSCKASGYTFNMYGVSWVRQAPGQGLEWMGWISAYNGNTNYAQKFQGRVTMTIDTSTTTAYMELRSLRSDDTAMYYCARDFQAEEPLSNWFDPWGQGTLVTVSS
VL: DIVMTQTPSSLSASVGDRVIITCRASQSISRYINWYQKKPGKAPKFLIYAVSSLGSGVPSRFSGSGSGTDFTLTISSLQPEDFATYYCQQSYSTPFTFGPGTKVDIK
notes: full-length IgG; also called Ab 34
Regarding B4, in test [1], the binding result is on record as “no binding”. In addition, the Kd in test [2] was 18 nM.

B5: ADI-14392 (antibody, V domains shown)
VH: EVQLLESGAEVKKPGSSVKVSCKASGGTFSSYGISWVRQAPGQGLEWMGGIIPIFGTSNYAQKFQGRVTITADESTSTAYMELSSLRSEDTAVYYCALDSSGRARYYAMDVWGQGTTVTVSS
VL: DIQVTQSPATLSLSPGERATLSCRASQSVSSYLAWYQQKPGQAPRLLIYDASNRATGIPARFSGSGSGTDFTLTISSLEPEDFAVYYCQQRNNWPPTFGPGTKVEIK
notes: full-length IgG; also called Ab 59
On to B5, for which, in test [1], the binding result is given as “no binding”. The Kd in test [2] was 72.5 nM.

B6: ADI-19493 (antibody, V domains shown)
VH: QVQLQQWGAGLLKPSETLSLTCAVYGGSFSGYYWSWIRQPPGKGLEWIGEINHSGSTNYNPSLKSRVTISVDTSKNQFSLKLSSVTAADTAVYYCARLIENTRVGEYYFDYWGQGTLVTVSS
VL: not shown
notes: full-length IgG
With B6, the binding result in test [1] was “no binding”. The molecule further had a Kd in test [2] of 22.6 nM.

B7: ADI-19467 (antibody, V domains shown)
VH: EVQLVESGGGLVKPGGSLRLSCAASGFTFSSYSMNWVRQAPGKGLEWVSSISSSSSYIYYADSVKGRFTISRDNAKNSLYLQMNSLRAEDTAVYYCASLSSSSELGYYFDYWGQGTLVTVSS
VL: QPVLTQPPSVSGAPGQRVTISCTGSSSNIGAGYDVHWYQQLPGTAPKLLIYGNSNRPSGVPDRFSGSKSGTSASLAITGLQAEDEADYYCQSYDSSLSGYVFGTGTKLTVL
notes: full-length IgG
For B7, the binding result in test [1] is recorded as “no binding”. In test [2], this molecule gave a Kd of 37.7 nM.

B8: ADI-25559 (antibody, V domains shown)
VH: EVQLLESGGGLVKPGGSLRLSCAASGFTFSSYSMNWVRQAPGKGLEWVSSISSSSSYIYYADSVKGRFTISRDNAKNSLYLQMNSLRAEDTAVYYCARDAAAKYYFDYWGQGTLVTVSS
VL: QPVLTQPPSVSGAPGQRVTISCTGSSSNIGAGYDVHWYQQLPGTAPKLLIYGNSNRPSGVPDRFSGSKSGTSASLAITGLQAEDEADYYCQSYDSSLSGKVFGTGTKLTVL
notes: full-length IgG
With B8, the binding result in test [1] is “no binding”. Besides, the dissociation constant Kd in test [2] worked out at 33.3 nM.
